Assay results as given in publication PMC8136791, “In vivo targets of Salmonella FinO include a FinP-like small RNA controlling copy number of a cohabitating plasmid”.

Molecular target: FinO (Salmonella enterica SL1344 (virulence …, UniProt A0A0H3P176 1-187))
Assay: EMSA; yeast RNA 1 ug/reaction; apparent Kd; 25 mM Tris-HCl pH 7.4, 150 mM NaCl, 1 mM MgCl2, 1 ug yeast RNA/reaction, 4 nM labeled RNA, 37 C, 1 h (EMSA) or 30 min (filter binding)
Settings: protein: recombinant, tags: His6-3C (expression plasmid pMiG007-His6-3C-FinO), label: 32P (5' end; 3' pCp alternative for probing)

B1: RepX (structured_RNA)
RNA: GGGCAUUGAUUGCCUCCUUUGCAGGCAGUUGGUGGUUAGGCGCUGGCGGGGUCACUACCCCCGCCCUGCGCCGCUCU
Kd (FinP-like stem-loops, short 3' tail): ~500 nM

B2: FinP (structured_RNA)
RNA: GGGACACAUAGGAACCUCCUCAAAGGAUUCUAUGGACAGUCGAUGCAGGGAGUGACAGCUCCCUGUAUCGGCGAUUUU
Kd (two stem-loops (SLI, SLII) with 3' U tail): ~500 nM
